Where a chain is given by its changes, count along the chain named.
B1: UGT91D2: known Stevia rebaudiana UDP sugar-dependent glycosyltransferase, amino acid sequence SEQ ID NO: 4 (protein, listed as Stevia rebaudiana)
chain: MYNVTYHQNSKAMATSDSIVDDRKQLHVATFPWLAFGHILPYLQLSKLIAEKGHKVSFLSTTRNIQRLSSHISPLINVVQLTLPRVQELPEDAEATTDVHPEDIPYLKKASDGLQPEVTRFLEQHSPDWIIYDYTHYWLPSIAASLGISRAHFSVTTPWAIAYMGPSADAMINGSDGRTTVEDLTTPPKWFPFPTKVCWRKHDLARLVPYKAPGISDGYRMGLVLKGSDCLLSKCYHEFGTQWLPLLETLHQVPVVPVGLLPPEIPGDEKDETWVSIKKWLDGKQKGSVVYVALGSEVLVSQTEVVELALGLELSGLPFVWAYRKPKGPAKSDSVELPDGFVERTRDRGLVWTSWAPQLRILSHESVCGFLTHCGSGSIVEGLMFGHPLIMLPIFGDQPLNARLLEDKQVGIEIPRNEEDGCLTKESVARSLRSVVVEKEGEIYKANARELSKIYNDTKVEKEYVSQFVDYLEKNARAVAIDHES
B2: UGT91D2L #16: novel Stevia rebaudiana UGT highly homologous with UGT91D2, amino acid sequence SEQ ID NO: 2 (protein, listed as Stevia rebaudiana)
chain: B1 chain with Y42F, T156V, S233F, V298A, I394L, K439N, Y471F

Experiments:
[1] = in vitro glucosylation activity (GlcT) of Escherichia coli-expressed UGT protein with UDP-glucose; format: biochemical; details: recombinant protein, 30° C. 1 hour, LC-MS
Protocol: (§1) The standard enzymatic reaction conditions are as follows. A reaction solution (2 mM UDP-glucose, 0.1 mM sugar receptor substrate, 100 mM potassium phosphate buffer (pH 7.5), 25 μl of purified enzyme solution) was prepared to 50 μl with distilled water and incubated at 30° C. for 1 hour to react. The LC-MS analysis of 5 μl of the enzymatic reaction solution was carried out under the following conditions.
(§2) • Column: Imtakt SM-C18 3.0 um 4.6 mm I.D.×250 mm • Mobile phase: A: MilliQ Water (+0.2% acetic acid), • B: Methanol • Gradient: 0 to 5 min (B conc 10% constant), 5 to 20 min (B conc 10%→70%), 20 to 25 min (B conc 70%→100%), 25 to 35 min (B conc 100% constant), 35 to 36 min (B conc 100%→10%), 45 min end of analysis • Flow rate: 0.4 mL/min • Column oven: 40° C.
(§3) Evaluation of Mutants 1 and 2 was then made using the protein expressed in Escherichia coli in the same manner as in Example 4. The glucosylation activity (GlcT) and the rhamnosylation activity (RhaT) were evaluated using UDP-glucose and UDP-rhamnose, respectively, as the sugar donor and using rubusoside as the substrate, which is a sugar receptor. Stevioside and dulcoside A were produced as the reaction products in the former and in the latter, respectively.

[2] = in vitro rhamnosylation activity (RhaT) of Escherichia coli-expressed UGT protein with UDP-rhamnose; format: biochemical; details: recombinant protein, LC-MS
Protocol: as §1, §2, §3

[3] = test system: Saccharomyces cerevisiae strain YPH499; experiment: Production of Reb.C from steviol in yeast coexpressing UGTs and AtRHM2; format: cell-based; details: yeast coexpressing UGT85C2, UGT74G1, UGT76G1 and AtRHM2; 0.5 μg or 2 μg of steviol per 1 ml; HPLC, LC-MS
From the text: [Example 5] RebC synthesis by fermentative production using yeast Various steviol glycosides were produced from steviol in yeast. First, yeast that simultaneously expresses the 4 glycosylation enzyme genes UGT85C2 (SEQ ID NO: 7), UGT91D2 (SEQ ID NO: 3), UGT74G1 (SEQ ID NO: 9), and UGT76G1 (SEQ ID NO: 11) or the 4 genes UGT85C2, UGT91D2L #16, UGT74G1, and UGT76G1 from Stevia rebaudiana and the UDP-rhamnose synthase gene AtRHM2 (SEQ ID NO: 13) from Arabidopsis thaliana has been created.
The plasmids set forth in Table 1 were introduced into the Saccharomyces cerevisiae strain YPH499 (ura3-52 lys2-801^amber ade2-101^ochre trp1-Δ63 his3-Δ200 leu2-Δ1 a) as a host by the lithium acetate method. Those that grew on SC-Trp&Ura&His agar medium (6.7 g of Yeast nitrogen base without amino acids, 20 g of glucose, 1.3 g of amino acid mixture powder Trp&Ura&His, 20 g of Bacto agar, per 1 L) were selected as transformant strains.
First, 10 ml of SC-Trp&Ura&His liquid medium (SC-Trp&Ura&His agar medium without Bacto agar) was inoculated each transformant strain as a preculture and cultured with shaking at 30° C. for 1 day. […]
The obtained glycoside sample was analyzed with high performance liquid chromatography (HPLC). […]

Molecule	activity to glucosylate rubusoside to produce stevioside [1]	activity to rhamnosylate rubusoside to produce dulcoside A [2]	amount of Reb.C produced [3]
B1	production of stevioside	production of dulcoside A	Reb.C was produced
B2	weaker than SrUGT91D2	markedly higher than SrUGT91D2	higher than that in the strain A-5678 expressing UGT91D2

— US20230340429A1, “STEVIOL GLYCOSIDE HEXOSE TRANSFERASE AND GENE CODING FOR SAME” (SUNTORY HOLDINGS LIMITED, priority 2016, published 2023)
